Target: purified rat skin collagen type I (rat) (UniProt P02454)
Assay: affinity chromatography

Chain of UniProt P02454 (P02454 152-1207, chain 1 of 2): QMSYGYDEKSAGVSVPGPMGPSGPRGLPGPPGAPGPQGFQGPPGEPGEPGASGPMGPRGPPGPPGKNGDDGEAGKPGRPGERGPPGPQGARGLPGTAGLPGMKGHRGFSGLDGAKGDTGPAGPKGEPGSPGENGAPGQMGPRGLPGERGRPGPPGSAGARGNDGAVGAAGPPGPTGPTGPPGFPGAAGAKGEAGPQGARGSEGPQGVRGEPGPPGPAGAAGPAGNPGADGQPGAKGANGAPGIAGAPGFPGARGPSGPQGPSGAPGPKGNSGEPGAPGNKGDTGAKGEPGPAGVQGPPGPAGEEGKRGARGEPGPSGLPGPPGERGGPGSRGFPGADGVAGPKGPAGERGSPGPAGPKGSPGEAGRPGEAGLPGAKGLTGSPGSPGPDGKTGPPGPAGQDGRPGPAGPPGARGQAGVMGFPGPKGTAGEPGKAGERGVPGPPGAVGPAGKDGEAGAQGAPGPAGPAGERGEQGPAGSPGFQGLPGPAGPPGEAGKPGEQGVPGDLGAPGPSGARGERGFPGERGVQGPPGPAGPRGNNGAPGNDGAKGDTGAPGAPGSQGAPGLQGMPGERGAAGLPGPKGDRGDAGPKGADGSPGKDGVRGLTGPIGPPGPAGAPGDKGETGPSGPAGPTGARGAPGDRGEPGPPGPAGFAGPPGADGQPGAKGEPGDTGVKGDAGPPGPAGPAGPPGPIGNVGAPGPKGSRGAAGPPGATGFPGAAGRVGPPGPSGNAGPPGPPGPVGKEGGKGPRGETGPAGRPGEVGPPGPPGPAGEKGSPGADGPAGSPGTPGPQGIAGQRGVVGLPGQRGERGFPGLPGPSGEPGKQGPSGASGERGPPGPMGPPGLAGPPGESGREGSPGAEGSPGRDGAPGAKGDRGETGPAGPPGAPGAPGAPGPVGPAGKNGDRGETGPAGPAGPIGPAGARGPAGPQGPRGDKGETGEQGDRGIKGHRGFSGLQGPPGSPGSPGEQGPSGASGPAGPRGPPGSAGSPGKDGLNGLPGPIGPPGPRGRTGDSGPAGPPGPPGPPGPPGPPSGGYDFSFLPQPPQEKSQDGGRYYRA
Chain of UniProt P02454 (P02466 86-1125, chain 2 of 2, further chain): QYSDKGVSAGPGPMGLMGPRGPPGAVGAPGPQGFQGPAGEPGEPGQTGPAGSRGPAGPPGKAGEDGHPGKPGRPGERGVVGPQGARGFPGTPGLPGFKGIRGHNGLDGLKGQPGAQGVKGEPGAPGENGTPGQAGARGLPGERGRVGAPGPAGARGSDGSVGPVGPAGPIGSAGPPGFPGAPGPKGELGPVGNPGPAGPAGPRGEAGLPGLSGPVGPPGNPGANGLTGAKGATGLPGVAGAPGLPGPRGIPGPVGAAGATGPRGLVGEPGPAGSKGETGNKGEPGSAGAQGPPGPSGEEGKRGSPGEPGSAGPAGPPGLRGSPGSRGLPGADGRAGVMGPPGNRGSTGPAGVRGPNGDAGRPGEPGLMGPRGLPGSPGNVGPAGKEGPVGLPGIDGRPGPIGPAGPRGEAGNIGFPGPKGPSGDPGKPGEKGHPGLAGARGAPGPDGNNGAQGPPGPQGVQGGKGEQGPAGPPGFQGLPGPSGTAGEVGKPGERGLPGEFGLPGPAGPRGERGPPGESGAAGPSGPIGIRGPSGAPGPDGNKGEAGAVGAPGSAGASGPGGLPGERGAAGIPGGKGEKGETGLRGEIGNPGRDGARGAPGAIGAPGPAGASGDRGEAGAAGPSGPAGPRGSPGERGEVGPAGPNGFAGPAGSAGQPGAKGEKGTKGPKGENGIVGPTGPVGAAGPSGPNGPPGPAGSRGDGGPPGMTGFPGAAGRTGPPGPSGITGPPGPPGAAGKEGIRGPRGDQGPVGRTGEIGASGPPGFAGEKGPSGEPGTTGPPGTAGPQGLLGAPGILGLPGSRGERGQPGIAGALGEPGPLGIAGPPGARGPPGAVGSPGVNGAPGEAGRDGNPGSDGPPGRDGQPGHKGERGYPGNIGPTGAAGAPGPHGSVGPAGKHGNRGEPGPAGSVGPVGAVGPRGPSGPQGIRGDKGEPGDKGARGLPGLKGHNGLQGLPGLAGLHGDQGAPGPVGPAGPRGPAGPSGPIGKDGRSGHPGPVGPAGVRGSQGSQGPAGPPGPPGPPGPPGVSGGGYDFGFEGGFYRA

Substance: human plasma fibronectin (natural protein)
- KBr concentration at which the bound fibronectin eluted: 1 M
